According to publication PMC6363478:

Target: rat EMILIN1 C-terminus fusion protein in pRSET-A (REM) (rat)
Assay: SPR

Kd: 270 nM
Substance: rat organ of Corti CNGA3 C-terminus fusion protein in pRSET-A (RA3-C) (domain or fragment)
